{"source": "paper PMC10845085", "origin": "cited, not measured here", "biological_target": "Neurotensin (Homo sapiens) (UniProt P30990)", "data": [{"substance": "Neurotensin receptor 2 (from UniProt O95665)", "values": [{"measurement": "Kd", "result": 6, "unit": "nM"}]}]}
